Reference: patent US20050203026A1 (DANISCO US, published 2005)
No end group written: not given here.

Assays:
[1] = target: T1, human VEGF165 (human, UniProt P15692-4 27-191); assay: plate binding assay: hVEGF165-coated wells, bound beta-lactamase activity measured with nitrocefin (mOD/min)
T1 construct: Bought recombinant protein; Coated on plates (ELISA), amine-coupled to a CM5 chip (SPR) or added to HUVE cells at 10 ng/mL; also called hVEGF165; vascular endothelial growth factor

[2] = target: BSA (UniProt P02769 25-607); assay: phage ELISA, detected with anti-M13-HRP and ABTS, A405 after 30 min, n=3
BSA, sequence (P02769 25-607 limits assumed): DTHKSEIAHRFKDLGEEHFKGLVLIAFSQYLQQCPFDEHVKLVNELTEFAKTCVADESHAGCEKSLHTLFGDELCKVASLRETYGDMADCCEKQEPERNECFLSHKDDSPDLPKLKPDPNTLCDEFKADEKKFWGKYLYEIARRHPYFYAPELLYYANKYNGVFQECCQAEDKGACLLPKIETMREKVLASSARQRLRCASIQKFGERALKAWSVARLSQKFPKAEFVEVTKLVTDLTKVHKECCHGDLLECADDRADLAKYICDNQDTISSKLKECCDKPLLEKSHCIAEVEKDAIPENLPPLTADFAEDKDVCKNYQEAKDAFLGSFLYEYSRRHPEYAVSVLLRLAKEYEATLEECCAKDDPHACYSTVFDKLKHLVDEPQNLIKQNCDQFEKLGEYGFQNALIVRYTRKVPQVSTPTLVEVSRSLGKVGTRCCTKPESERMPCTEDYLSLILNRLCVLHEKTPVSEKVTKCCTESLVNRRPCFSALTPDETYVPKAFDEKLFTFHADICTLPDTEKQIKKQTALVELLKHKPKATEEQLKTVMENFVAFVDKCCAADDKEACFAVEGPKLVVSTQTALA

[3] = target: T1, human VEGF165; assay: SPR (BIAcore 3000), VEGF165 coupled to CM5 chip, peptide injected; two state reaction model with conformation change
[4] = target: T1, human VEGF165; assay: SPR (BIAcore 3000), 6000 RU VEGF on CM5 chip, TNF reference lane, peptide injected; two state reaction model with conformation change
[5] = target: T1, human VEGF165; assay: surface plasmon resonance (BIAcore), hVEGF165 coupled to a CM5 chip, BBI-VEGF injected

T1 sequence (P15692 other isoform, or with tags, fused parts or gaps limits assumed): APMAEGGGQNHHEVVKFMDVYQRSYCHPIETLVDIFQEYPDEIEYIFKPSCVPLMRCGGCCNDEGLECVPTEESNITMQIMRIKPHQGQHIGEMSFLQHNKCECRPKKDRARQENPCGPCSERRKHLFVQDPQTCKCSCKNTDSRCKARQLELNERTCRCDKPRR

B1: BLA (enzyme)
chain: TPVSEKQLAEVVANTITPLMKAQSVPGMAVAVIYQGKPHYYTFGKADIAANKPVTPQTLFELGSISKTFTGVLGGDAIARGEISLDDAVTRYWPQLTGKQWQGIRMLDLATYTAGGLPLQVPDEVTDNASLLRFYQNWQPQWKPGTTRLYANASIGLFGALAVKPSGMPYEQAMTTRVLKPLKLDHTWINVPKAEEAHYAWGYRDGKAVRVSPGMLDAQAYGVKTNVQDMANWVMANMAPENVADASLKQGIALAQSRYWRIGSMYQGLGWEMLNWPVEANTVVEGSDSKVALAPLPVAEVNPPAPPVKASWVHKTGSTGGFGSYVAFIPEKQIGIVMLANTSYPNPARVEAAYHILEALQHHHHHH
notes: also called pCB04; pCB04 (WT)
B1: no binding (tested: about 40 µM) [1].

ACNLWPHFWCGGG [SEQ ID NO 3]: no binding [2].

ACTLWPTFWCGGG [SEQ ID NO 2]: no binding [2].

ACYNLYGWTCGGG [SEQ ID NO 1]: no binding [2].

ACYNLYGWTCGGG (cysteine pairing not given here; also: biotinylated, site not given here, Synthetic peptide (FMOC, SynPep)) [biotinylated peptide CK37281] was tested, and the Kd [3] was 1.92 µM, the koff [3] was 0.0122 s⁻¹ and the kon [3] was 2840 M⁻¹ s⁻¹.

ACTLWPSYWCGGG [SEQ ID NO 7]: no binding [2].

B2: CK37283 (peptide)
peptide: ACNLWPHFWCGGG
modifications: Probably cyclised by a Cys2-Cys10 disulfide, since it comes from the C7C constrained library. The patent does not say this for the synthetic peptide.
notes: Synthetic peptide from the phage panning
B2 showed a Kd [4] of 4.9 µM, a koff [4] of 0.318 s⁻¹ and a kon [4] of 12400 M⁻¹ s⁻¹.

B3: BBI-VEGF1 (designed binder)
chain: DDESSKPCCDQCACYNLYGWTCRCSDMRLNSCHSACKSCICALSYPAQCFCVDITDFCYEPCKPSEDDKEN
notes: also called anti-VEGF BBI
B3: binds [5].

ACSLWPAFWCGGG [SEQ ID NO 4]: no binding [2].
